Source: paper PMC11362559
pKd: −log10 of the molar value.

Target: biotinylated I-A^b protein (SPR) (mouse)
Test: SPR

mLAG3^ΔL1 (Loop 1 deletion construct of mouse LAG3) (from UniProt Q61790) (receptor)
pKd: 4.83
